Assay results from paper PMC4035259, “Structural Studies of an Anti-Inflammatory Lectin from Canavalia boliviana Seeds in Complex with Dimannosides” (PLoS ONE, 2014).

Legend:
[1] = target: Concanavalin A (Canavalia ensiformis); test: SAXS; in solution, 1, 5 and 10 mg/ml, buffers from pH 3 to pH 9 (JBS Solubility Kit); average molecular weight at each pH from I(0), BSA as size standard; dimer-tetramer equilibrium
[2] = target: the molecule itself; test: as above

Molecule | stoichiometry N [1] | stoichiometry N [2]
Concanavalin A (natural protein) | 4 | 
Canavalia boliviana lectin (natural protein, UniProt A0A023GPI8 1-237, looked up, Lectin from Canavalia boliviana seeds, 237 amino acids (full-length alpha-chain, 25,572 Da); the preparation is a combination of the alpha-chain and its fragments, beta-chain (residues 1-118) and gamma-chain (residues 119-237); also called Cbol; CboL; source: purified from Canavalia boliviana seeds (according to Moura et al., 2009)) ADTIVAVELDTYPNTDIGDPSYPHIGIDIKSVRSKKTAKWNMQNGKVGTAHIIYNSVGKRLSAVVSYPNGDSATVSYDVDLDNVLPEWVRVGLSATTGLYKETNTILSWSFTSKLKSNSTHETNALHFMFNQFSKDQKDLILQGDATTGRDGNLELTRVSSNGSPQGSSVGRALFYAPVHIWESSAVVASFDATFTFLIKSSDSHPADGIAFFISNIDSSIPSGSTGRLLGLFPDAN |  | 4
